Data from EP2385124A2.

Target: GST-DLG1 PDZ domains 1-2 fusion protein (human) (UniProt Q12959)
Test: competition G assay, 100 uM unlabeled 8-mer against 20 uM biotin-labeled AA2L on GST-DLG1

percent inhibition: > 50%
Substance: eight amino acid CLASP-2 peptide MTSSSSVV (unlabeled)
